# Reference: article PMC7051176
# Molecular target: mannose receptor (MR) (human (endogenous in primary monocyte-derived macrophages)) (UniProt P22897)
substance,measurement,value
HIV-1 89.6 Env (from UniProt Q73372) (natural protein),"infection of primary human MDM by wild-type HIV-1 89.6 (intracellular Gag stain) with increasing concentrations of soluble mannan, normalized to 0 mg/mL mannan",16 fold
